Literature values in patent US10906951B2, “Modified natural killer cells and natural killer cell lines having increased cytotoxicity” (ONK THERAPEUTICS LIMITED, priority 2015, dated 2021).

Target: DR5 (Homo sapiens, UniProt O14763)
Conditions: in words; known from WO 2009/077857, Van der Sloot 2006, MacFarlane 2005, WO 01/00832; cited from earlier work

Row | Molecule | affinity for DR5
1 | E195R: TRAIL variant, Van der Sloot 2006 (protein, UniProt P50591 1-281, looked up, variant E195R) Tumor necrosis factor ligand …: MAMMEVQGGPSLGQTCVLIVIFTVLLQSLCVAVTYVYFTNELKQMQDKYSKSGIACFLKEDDSYWDPNDEESMNSPCWQVKWQLRQLVRKMILRTSEETISTVQEKQQNISPLVRERGPQRVAAHITGTRGRSNTLSSPNSKNEKALGRKINSWESSRSGHSFLSNLHLRNGELVIHEKGFYYIYSQTYFRFQERIKENTKNDKQMVQYIYKYTSYPDPILLMKSARNSCWSKDAEYGLYSIYQGGIFELKENDRIFVSVTNEHLIDMDHEASFFGAFLVG | increased affinity for DR5
2 | T214R: TRAIL variant, Van der Sloot 2006 (protein, UniProt P50591 1-281, looked up, variant T214R) Tumor necrosis factor ligand …: MAMMEVQGGPSLGQTCVLIVIFTVLLQSLCVAVTYVYFTNELKQMQDKYSKSGIACFLKEDDSYWDPNDEESMNSPCWQVKWQLRQLVRKMILRTSEETISTVQEKQQNISPLVRERGPQRVAAHITGTRGRSNTLSSPNSKNEKALGRKINSWESSRSGHSFLSNLHLRNGELVIHEKGFYYIYSQTYFRFQEEIKENTKNDKQMVQYIYKYRSYPDPILLMKSARNSCWSKDAEYGLYSIYQGGIFELKENDRIFVSVTNEHLIDMDHEASFFGAFLVG | increased affinity for DR5
3 | Y213W/S215D: TRAIL variant, MacFarlane 2005 (protein, UniProt P50591 1-281, looked up, variant Y213W S215D) Tumor necrosis factor ligand …: MAMMEVQGGPSLGQTCVLIVIFTVLLQSLCVAVTYVYFTNELKQMQDKYSKSGIACFLKEDDSYWDPNDEESMNSPCWQVKWQLRQLVRKMILRTSEETISTVQEKQQNISPLVRERGPQRVAAHITGTRGRSNTLSSPNSKNEKALGRKINSWESSRSGHSFLSNLHLRNGELVIHEKGFYYIYSQTYFRFQEEIKENTKNDKQMVQYIYKWTDYPDPILLMKSARNSCWSKDAEYGLYSIYQGGIFELKENDRIFVSVTNEHLIDMDHEASFFGAFLVG | increased affinity for DR5
4 | Y189A/Q193S/N199V/K201R/Y213W/S215D: TRAIL variant, MacFarlane 2005 (protein, UniProt P50591 1-281, looked up, variant Y189A Q193S N199V K201R Y213W S215D) Tumor necrosis factor ligand …: MAMMEVQGGPSLGQTCVLIVIFTVLLQSLCVAVTYVYFTNELKQMQDKYSKSGIACFLKEDDSYWDPNDEESMNSPCWQVKWQLRQLVRKMILRTSEETISTVQEKQQNISPLVRERGPQRVAAHITGTRGRSNTLSSPNSKNEKALGRKINSWESSRSGHSFLSNLHLRNGELVIHEKGFYYIYSQTAFRFSEEIKEVTRNDKQMVQYIYKWTDYPDPILLMKSARNSCWSKDAEYGLYSIYQGGIFELKENDRIFVSVTNEHLIDMDHEASFFGAFLVG | increased affinity for DR5
5 | Y240A: TRAIL DR5 variant, WO 01/00832 (protein, UniProt P50591 1-281, looked up, variant Y240A) Tumor necrosis factor ligand …: MAMMEVQGGPSLGQTCVLIVIFTVLLQSLCVAVTYVYFTNELKQMQDKYSKSGIACFLKEDDSYWDPNDEESMNSPCWQVKWQLRQLVRKMILRTSEETISTVQEKQQNISPLVRERGPQRVAAHITGTRGRSNTLSSPNSKNEKALGRKINSWESSRSGHSFLSNLHLRNGELVIHEKGFYYIYSQTYFRFQEEIKENTKNDKQMVQYIYKYTSYPDPILLMKSARNSCWSKDAEYGLASIYQGGIFELKENDRIFVSVTNEHLIDMDHEASFFGAFLVG | DR5 variants
6 | T214R/E195R: TRAIL variant, Van der Sloot 2006 (protein, UniProt P50591 1-281, looked up, variant T214R E195R) Tumor necrosis factor ligand …: MAMMEVQGGPSLGQTCVLIVIFTVLLQSLCVAVTYVYFTNELKQMQDKYSKSGIACFLKEDDSYWDPNDEESMNSPCWQVKWQLRQLVRKMILRTSEETISTVQEKQQNISPLVRERGPQRVAAHITGTRGRSNTLSSPNSKNEKALGRKINSWESSRSGHSFLSNLHLRNGELVIHEKGFYYIYSQTYFRFQERIKENTKNDKQMVQYIYKYRSYPDPILLMKSARNSCWSKDAEYGLYSIYQGGIFELKENDRIFVSVTNEHLIDMDHEASFFGAFLVG | increased affinity for DR5
7 | T214R/D269H: TRAIL variant, Van der Sloot 2006 (protein, UniProt P50591 1-281, looked up, variant T214R D269H) Tumor necrosis factor ligand …: MAMMEVQGGPSLGQTCVLIVIFTVLLQSLCVAVTYVYFTNELKQMQDKYSKSGIACFLKEDDSYWDPNDEESMNSPCWQVKWQLRQLVRKMILRTSEETISTVQEKQQNISPLVRERGPQRVAAHITGTRGRSNTLSSPNSKNEKALGRKINSWESSRSGHSFLSNLHLRNGELVIHEKGFYYIYSQTYFRFQEEIKENTKNDKQMVQYIYKYRSYPDPILLMKSARNSCWSKDAEYGLYSIYQGGIFELKENDRIFVSVTNEHLIDMHHEASFFGAFLVG | increased affinity for DR5
8 | D269A: TRAIL DR5 variant, WO 01/00832 (protein, UniProt P50591 1-281, looked up, variant D269A) Tumor necrosis factor ligand …: MAMMEVQGGPSLGQTCVLIVIFTVLLQSLCVAVTYVYFTNELKQMQDKYSKSGIACFLKEDDSYWDPNDEESMNSPCWQVKWQLRQLVRKMILRTSEETISTVQEKQQNISPLVRERGPQRVAAHITGTRGRSNTLSSPNSKNEKALGRKINSWESSRSGHSFLSNLHLRNGELVIHEKGFYYIYSQTYFRFQEEIKENTKNDKQMVQYIYKYTSYPDPILLMKSARNSCWSKDAEYGLYSIYQGGIFELKENDRIFVSVTNEHLIDMAHEASFFGAFLVG | DR5 variants
9 | N199V: TRAIL variant, MacFarlane 2005 (protein, UniProt P50591 1-281, looked up, variant N199V) Tumor necrosis factor ligand …: MAMMEVQGGPSLGQTCVLIVIFTVLLQSLCVAVTYVYFTNELKQMQDKYSKSGIACFLKEDDSYWDPNDEESMNSPCWQVKWQLRQLVRKMILRTSEETISTVQEKQQNISPLVRERGPQRVAAHITGTRGRSNTLSSPNSKNEKALGRKINSWESSRSGHSFLSNLHLRNGELVIHEKGFYYIYSQTYFRFQEEIKEVTKNDKQMVQYIYKYTSYPDPILLMKSARNSCWSKDAEYGLYSIYQGGIFELKENDRIFVSVTNEHLIDMDHEASFFGAFLVG | increased affinity for DR5

Test system: TRAIL decoy receptors (DcR1 and DcR2)
Conditions: in words; known from WO 2009/077857, Leary 2016, WO 01/00832; cited from earlier work

Row | Molecule | affinity for TRAIL decoy receptors
10 | H270D: TRAIL DcR variant, Leary 2016 (protein, UniProt P50591 1-281, looked up, variant H270D) Tumor necrosis factor ligand …: MAMMEVQGGPSLGQTCVLIVIFTVLLQSLCVAVTYVYFTNELKQMQDKYSKSGIACFLKEDDSYWDPNDEESMNSPCWQVKWQLRQLVRKMILRTSEETISTVQEKQQNISPLVRERGPQRVAAHITGTRGRSNTLSSPNSKNEKALGRKINSWESSRSGHSFLSNLHLRNGELVIHEKGFYYIYSQTYFRFQEEIKENTKNDKQMVQYIYKYTSYPDPILLMKSARNSCWSKDAEYGLYSIYQGGIFELKENDRIFVSVTNEHLIDMDDEASFFGAFLVG | decreased affinity for TRAIL decoy receptors
11 | T261L: TRAIL DcR variant, Leary 2016 (protein, UniProt P50591 1-281, looked up, variant T261L) Tumor necrosis factor ligand …: MAMMEVQGGPSLGQTCVLIVIFTVLLQSLCVAVTYVYFTNELKQMQDKYSKSGIACFLKEDDSYWDPNDEESMNSPCWQVKWQLRQLVRKMILRTSEETISTVQEKQQNISPLVRERGPQRVAAHITGTRGRSNTLSSPNSKNEKALGRKINSWESSRSGHSFLSNLHLRNGELVIHEKGFYYIYSQTYFRFQEEIKENTKNDKQMVQYIYKYTSYPDPILLMKSARNSCWSKDAEYGLYSIYQGGIFELKENDRIFVSVLNEHLIDMDHEASFFGAFLVG | decreased affinity for TRAIL decoy receptors
12 | T261L/G160E/H270D: TRAIL DcR variant, Leary 2016 (protein, UniProt P50591 1-281, looked up, variant T261L G160E H270D) Tumor necrosis factor ligand …: MAMMEVQGGPSLGQTCVLIVIFTVLLQSLCVAVTYVYFTNELKQMQDKYSKSGIACFLKEDDSYWDPNDEESMNSPCWQVKWQLRQLVRKMILRTSEETISTVQEKQQNISPLVRERGPQRVAAHITGTRGRSNTLSSPNSKNEKALGRKINSWESSRSEHSFLSNLHLRNGELVIHEKGFYYIYSQTYFRFQEEIKENTKNDKQMVQYIYKYTSYPDPILLMKSARNSCWSKDAEYGLYSIYQGGIFELKENDRIFVSVLNEHLIDMDDEASFFGAFLVG | decreased affinity for TRAIL decoy receptors
13 | T261L/H270D: TRAIL DcR variant, Leary 2016 (protein, UniProt P50591 1-281, looked up, variant T261L H270D) Tumor necrosis factor ligand …: MAMMEVQGGPSLGQTCVLIVIFTVLLQSLCVAVTYVYFTNELKQMQDKYSKSGIACFLKEDDSYWDPNDEESMNSPCWQVKWQLRQLVRKMILRTSEETISTVQEKQQNISPLVRERGPQRVAAHITGTRGRSNTLSSPNSKNEKALGRKINSWESSRSGHSFLSNLHLRNGELVIHEKGFYYIYSQTYFRFQEEIKENTKNDKQMVQYIYKYTSYPDPILLMKSARNSCWSKDAEYGLYSIYQGGIFELKENDRIFVSVLNEHLIDMDDEASFFGAFLVG | decreased affinity for TRAIL decoy receptors
14 | T261L/G160E: TRAIL DcR variant, Leary 2016 (protein, UniProt P50591 1-281, looked up, variant T261L G160E) Tumor necrosis factor ligand …: MAMMEVQGGPSLGQTCVLIVIFTVLLQSLCVAVTYVYFTNELKQMQDKYSKSGIACFLKEDDSYWDPNDEESMNSPCWQVKWQLRQLVRKMILRTSEETISTVQEKQQNISPLVRERGPQRVAAHITGTRGRSNTLSSPNSKNEKALGRKINSWESSRSEHSFLSNLHLRNGELVIHEKGFYYIYSQTYFRFQEEIKENTKNDKQMVQYIYKYTSYPDPILLMKSARNSCWSKDAEYGLYSIYQGGIFELKENDRIFVSVLNEHLIDMDHEASFFGAFLVG | decreased affinity for TRAIL decoy receptors
15 | T200H: TRAIL DcR variant, Leary 2016 (protein, UniProt P50591 1-281, looked up, variant T200H) Tumor necrosis factor ligand …: MAMMEVQGGPSLGQTCVLIVIFTVLLQSLCVAVTYVYFTNELKQMQDKYSKSGIACFLKEDDSYWDPNDEESMNSPCWQVKWQLRQLVRKMILRTSEETISTVQEKQQNISPLVRERGPQRVAAHITGTRGRSNTLSSPNSKNEKALGRKINSWESSRSGHSFLSNLHLRNGELVIHEKGFYYIYSQTYFRFQEEIKENHKNDKQMVQYIYKYTSYPDPILLMKSARNSCWSKDAEYGLYSIYQGGIFELKENDRIFVSVTNEHLIDMDHEASFFGAFLVG | decreased affinity for TRAIL decoy receptors
